{
  "source": "patent US10189900B2",
  "about": "“Method for screening for autophagy activator or inhibitor” (KOREA FOOD RESEARCH INSTITUTE, priority 2014, dated 2019)",
  "molecules": {"B1": {"name": "HA-tagged ULK1 wild type (protein)", "chain": "MEPGRGGTETVGKFEFSRKDLIGHGAFAVVFKGRHREKHDLEVAVKCINKKNLAKSQTLLGKEIKILKELKHENIVALYDFQEMANSVYLVMEYCNGGDLADYLHAMRTLSEDTIRLFLQQIAGAMRLLHSKGIIHRDLKPQNILLSNPAGRRANPNSIRVKIADFGFARYLQSNMMAATLCGSPMYMAPEVIMSQHYDGKADLWSIGTIVYQCLTGKAPFQASSPQDLRLFYEKNKTLVPTIPRETSAPLRQLLLALLQRNHKDRMDFDEFFHHPFLDASPSVRKSPPVPVPSYPSSGSGSSSSSSSTSHLASPPSLGEMQQLQKTLASPADTAGFLHSSRDSGGSKDSSCDTDDFVMVPAQFPGDLVAEAPSAKPPPDSLMCSGSSLVASAGLESHGRTPSPSPPCSSSPSPSGRAGPFSSSRCGASVPIPVPTQVQNYQRIERNLQSPTQFQTPRSSAIRRSGSTSPLGFARASPSPPAHAEHGGVLARKMSLGGGRPYTPSPQVGTIPERPGWSGTPSPQGAEMRGGRSPRPGSSAPEHSPRTSGLGCRLHSAPNLSDLHVVRPKLPKPPTDPLGAVFSPPQASPPQPSHGLQSCRNLRGSPKLPDFLQRNPLPPILGSPTKAVPSFDFPKTPSSQNLLALLARQGVVMTPPRNRTLPDLSEVGPFHGQPLGPGLRPGEDPKGPFGRSFSTSRLTDLLLKAAFGTQAPDPGSTESLQEKPMEIAPSAGFGGSLHPGARAGGTSSPSPVVFTVGSPPSGSTPPQGPRTRMFSAGPTGSASSSARHLVPGPCSEAPAPELPAPGHGCSFADPITANLEGAVTFEAPDLPEETLMEQEHTEILRGLRFTLLFVQHVLEIAALKGSASEAAGGPEYQLQESVVADQISLLSREWGFAEQLVLYLKVAELLSSGLQSAIDQIRAGKLCLSSTVKQVVRRLNELYKASVVSCQGLSLRLQRFFLDKQRLLDRIHSITAERLIFSHAVQMVQSAALDEMFQHREGCVPRYHKALLLLEGLQHMLSDQADIENVTKCKLCIERRLSALLTGICA"}, "B2": {"name": "myc-tagged ULK1 KD (M92) mutant (protein)", "chain": "MEPGRGGTETVGKFEFSRKDLIGHGAFAVVFKGRHREKHDLEVAVKCINKKNLAKSQTLLGKEIKILKELKHENIVALYDFQEMANSVYLVAEYCNGGDLADYLHAMRTLSEDTIRLFLQQIAGAMRLLHSKGIIHRDLKPQNILLSNPAGRRANPNSIRVKIADFGFARYLQSNMMAATLCGSPMYMAPEVIMSQHYDGKADLWSIGTIVYQCLTGKAPFQASSPQDLRLFYEKNKTLVPTIPRETSAPLRQLLLALLQRNHKDRMDFDEFFHHPFLDASPSVRKSPPVPVPSYPSSGSGSSSSSSSTSHLASPPSLGEMQQLQKTLASPADTAGFLHSSRDSGGSKDSSCDTDDFVMVPAQFPGDLVAEAPSAKPPPDSLMCSGSSLVASAGLESHGRTPSPSPPCSSSPSPSGRAGPFSSSRCGASVPIPVPTQVQNYQRIERNLQSPTQFQTPRSSAIRRSGSTSPLGFARASPSPPAHAEHGGVLARKMSLGGGRPYTPSPQVGTIPERPGWSGTPSPQGAEMRGGRSPRPGSSAPEHSPRTSGLGCRLHSAPNLSDLHVVRPKLPKPPTDPLGAVFSPPQASPPQPSHGLQSCRNLRGSPKLPDFLQRNPLPPILGSPTKAVPSFDFPKTPSSQNLLALLARQGVVMTPPRNRTLPDLSEVGPFHGQPLGPGLRPGEDPKGPFGRSFSTSRLTDLLLKAAFGTQAPDPGSTESLQEKPMEIAPSAGFGGSLHPGARAGGTSSPSPVVFTVGSPPSGSTPPQGPRTRMFSAGPTGSASSSARHLVPGPCSEAPAPELPAPGHGCSFADPITANLEGAVTFEAPDLPEETLMEQEHTEILRGLRFTLLFVQHVLEIAALKGSASEAAGGPEYQLQESVVADQISLLSREWGFAEQLVLYLKVAELLSSGLQSAIDQIRAGKLCLSSTVKQVVRRLNELYKASVVSCQGLSLRLQRFFLDKQRLLDRIHSITAERLIFSHAVQMVQSAALDEMFQHREGCVPRYHKALLLLEGLQHMLSDQADIENVTKCKLCIERRLSALLTGICA"}, "B3": {"name": "myc-tagged ULK1 wild type (protein)", "chain": "MEPGRGGTETVGKFEFSRKDLIGHGAFAVVFKGRHREKHDLEVAVKCINKKNLAKSQTLLGKEIKILKELKHENIVALYDFQEMANSVYLVMEYCNGGDLADYLHAMRTLSEDTIRLFLQQIAGAMRLLHSKGIIHRDLKPQNILLSNPAGRRANPNSIRVKIADFGFARYLQSNMMAATLCGSPMYMAPEVIMSQHYDGKADLWSIGTIVYQCLTGKAPFQASSPQDLRLFYEKNKTLVPTIPRETSAPLRQLLLALLQRNHKDRMDFDEFFHHPFLDASPSVRKSPPVPVPSYPSSGSGSSSSSSSTSHLASPPSLGEMQQLQKTLASPADTAGFLHSSRDSGGSKDSSCDTDDFVMVPAQFPGDLVAEAPSAKPPPDSLMCSGSSLVASAGLESHGRTPSPSPPCSSSPSPSGRAGPFSSSRCGASVPIPVPTQVQNYQRIERNLQSPTQFQTPRSSAIRRSGSTSPLGFARASPSPPAHAEHGGVLARKMSLGGGRPYTPSPQVGTIPERPGWSGTPSPQGAEMRGGRSPRPGSSAPEHSPRTSGLGCRLHSAPNLSDLHVVRPKLPKPPTDPLGAVFSPPQASPPQPSHGLQSCRNLRGSPKLPDFLQRNPLPPILGSPTKAVPSFDFPKTPSSQNLLALLARQGVVMTPPRNRTLPDLSEVGPFHGQPLGPGLRPGEDPKGPFGRSFSTSRLTDLLLKAAFGTQAPDPGSTESLQEKPMEIAPSAGFGGSLHPGARAGGTSSPSPVVFTVGSPPSGSTPPQGPRTRMFSAGPTGSASSSARHLVPGPCSEAPAPELPAPGHGCSFADPITANLEGAVTFEAPDLPEETLMEQEHTEILRGLRFTLLFVQHVLEIAALKGSASEAAGGPEYQLQESVVADQISLLSREWGFAEQLVLYLKVAELLSSGLQSAIDQIRAGKLCLSSTVKQVVRRLNELYKASVVSCQGLSLRLQRFFLDKQRLLDRIHSITAERLIFSHAVQMVQSAALDEMFQHREGCVPRYHKALLLLEGLQHMLSDQADIENVTKCKLCIERRLSALLTGICA"}, "B4": {"name": "HA-tagged ULK1 M92A KD (kinase dead) mutant (protein)", "chain": "MEPGRGGTETVGKFEFSRKDLIGHGAFAVVFKGRHREKHDLEVAVKCINKKNLAKSQTLLGKEIKILKELKHENIVALYDFQEMANSVYLVAEYCNGGDLADYLHAMRTLSEDTIRLFLQQIAGAMRLLHSKGIIHRDLKPQNILLSNPAGRRANPNSIRVKIADFGFARYLQSNMMAATLCGSPMYMAPEVIMSQHYDGKADLWSIGTIVYQCLTGKAPFQASSPQDLRLFYEKNKTLVPTIPRETSAPLRQLLLALLQRNHKDRMDFDEFFHHPFLDASPSVRKSPPVPVPSYPSSGSGSSSSSSSTSHLASPPSLGEMQQLQKTLASPADTAGFLHSSRDSGGSKDSSCDTDDFVMVPAQFPGDLVAEAPSAKPPPDSLMCSGSSLVASAGLESHGRTPSPSPPCSSSPSPSGRAGPFSSSRCGASVPIPVPTQVQNYQRIERNLQSPTQFQTPRSSAIRRSGSTSPLGFARASPSPPAHAEHGGVLARKMSLGGGRPYTPSPQVGTIPERPGWSGTPSPQGAEMRGGRSPRPGSSAPEHSPRTSGLGCRLHSAPNLSDLHVVRPKLPKPPTDPLGAVFSPPQASPPQPSHGLQSCRNLRGSPKLPDFLQRNPLPPILGSPTKAVPSFDFPKTPSSQNLLALLARQGVVMTPPRNRTLPDLSEVGPFHGQPLGPGLRPGEDPKGPFGRSFSTSRLTDLLLKAAFGTQAPDPGSTESLQEKPMEIAPSAGFGGSLHPGARAGGTSSPSPVVFTVGSPPSGSTPPQGPRTRMFSAGPTGSASSSARHLVPGPCSEAPAPELPAPGHGCSFADPITANLEGAVTFEAPDLPEETLMEQEHTEILRGLRFTLLFVQHVLEIAALKGSASEAAGGPEYQLQESVVADQISLLSREWGFAEQLVLYLKVAELLSSGLQSAIDQIRAGKLCLSSTVKQVVRRLNELYKASVVSCQGLSLRLQRFFLDKQRLLDRIHSITAERLIFSHAVQMVQSAALDEMFQHREGCVPRYHKALLLLEGLQHMLSDQADIENVTKCKLCIERRLSALLTGICA"}},
  "key": {"Ser30 of Beclin 1": {"system": "Ser30 of Beclin 1", "test": "Beclin 1 Ser30 phosphorylation after compound treatment (immunoprecipitation of endogenous Beclin 1, phospho-Ser30 antibody)", "format": "cell-based", "conditions": "HEK293T cells treated for 0, 15, 30, 60 and 120 min; endogenous Beclin 1 isolated by immunoprecipitation; rabbit phospho-Ser30 antibody", "procedure": "For co-immunoprecipitation, cell extracts were prepared in a buffer containing 40 mM HEPES, pH 7.4, 120 mM NaCl, 1 mM EDTA, 50 mM NaF, 1.5 mM Na3VO4, 10 mM Mb-glycerophosphate, 1% triton X-100, and protease inhibitor (Roche). Immunoprecipitated proteins were washed four times with a lysis buffer, and loaded onto 8% Tris-glycine gels. The resultant proteins were transferred onto polyvinylidene difluoride (PVDF) membranes (Bio-Rad, USA), and detected with western blotting detection reagents (Perkin Elmer, USA).\n(§1) HEK293T cells were treated with rapamycin for predetermined periods of time (0, 15, 30, 60, and 120 min). Endogenous Beclin 1 was isolated by immunoprecipitation. The phosphorylation of Ser30 was analyzed using rabbit antibodies developed in the present invention. It was verified that Ser30 of Beclin 1 was phosphorylated by rapamycin (FIG. 5). Rapamycin increases the activity of ULK1.\nas §1, with “torin” for “rapamycin”, “6).” for “5). Rapamycin increases the activity of ULK1.”"}, "[1]": {"target": "myc-tagged Beclin 1, Q14457", "sequence (Q14457 whole entry, looked up)": "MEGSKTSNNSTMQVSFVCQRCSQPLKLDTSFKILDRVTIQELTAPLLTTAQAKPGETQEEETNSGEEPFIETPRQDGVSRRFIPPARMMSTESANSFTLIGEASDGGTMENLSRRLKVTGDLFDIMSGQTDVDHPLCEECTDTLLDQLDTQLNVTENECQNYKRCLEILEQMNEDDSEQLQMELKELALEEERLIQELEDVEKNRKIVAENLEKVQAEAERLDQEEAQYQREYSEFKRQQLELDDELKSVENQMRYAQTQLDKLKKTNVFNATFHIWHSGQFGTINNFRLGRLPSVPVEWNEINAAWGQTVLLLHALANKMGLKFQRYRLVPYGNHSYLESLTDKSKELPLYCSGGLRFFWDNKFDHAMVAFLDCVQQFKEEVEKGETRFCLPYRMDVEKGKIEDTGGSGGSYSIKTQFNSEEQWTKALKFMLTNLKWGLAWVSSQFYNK"}, "[2]": {"target": "Recombinant Beclin 1 isolated from E. coli, Q14457", "sequence (Q14457 whole entry, looked up)": "as above"}},
  "data": [
    {"molecule": "torin", "values": [
      {"measurement": "phosphorylation of Ser30 of Beclin 1", "setting": "Ser30 of Beclin 1", "value": "phosphorylated"}
    ]},
    {"molecule": "B1", "values": [
      {"measurement": "band shift on SDS-PAGE (western blot)", "setting": "[1]", "value": "Beclin 1 co-expressed together with ULK1 showed band shift"}
    ]},
    {"molecule": "B2", "values": [
      {"measurement": "incorporation of 32P into Beclin 1 (in vitro kinase reaction, autoradiogram)", "setting": "[2]", "value": "KD mutant-added Beclin 1 was not phosphorylated"}
    ]},
    {"molecule": "B3", "values": [
      {"measurement": "incorporation of 32P into Beclin 1 (in vitro kinase reaction, autoradiogram)", "setting": "[2]", "value": "The ULK1 wild type phosphorylates Beclin 1"}
    ]},
    {"molecule": "B4", "values": [
      {"measurement": "band shift on SDS-PAGE (western blot)", "setting": "[1]", "value": "Beclin 1 co-expressed together with ULK1 M92A KD showed no band shift"}
    ]}
  ]
}
